Measurements: US7026443

B1: HPV16 E1 peptide … (position 386, 9 amino acids) (peptide)
peptide: NSNASAFLK
modifications: not checked
B2: HPV16 E1 peptide … (position 109, 9 amino acids) (peptide)
peptide: RLKAICIEK
modifications: not checked
B3: HPV16 E1 peptide … (position 72, 9 amino acids) (peptide)
peptide: TAQEAKQHR
modifications: not checked
B4: HPV16 E1 peptide … (position 497, 9 amino acids) (peptide)
peptide: SVICFVNSK
modifications: not checked
B5: HPV16 E1 peptide … (position 421, 9 amino acids) (peptide)
peptide: SMSQWIKYR
modifications: not checked
B6: HPV18 E1 position 460 peptide … (peptide)
peptide: FITFLGALK
modifications: not checked
B7: HPV16 E1 peptide … (position 484, 9 amino acids) (peptide)
peptide: SLFGMSLMK
modifications: not checked
B8: HPV16 E1 peptide … (position 305, 9 amino acids) (peptide)
peptide: MMIEPPKLR
modifications: not checked
B9: HPV16 E1 peptide … (position 222, 9 amino acids) (peptide)
peptide: LVRPFKSNK
modifications: not checked
B10: HPV16 E1 peptide … (position 544, 9 amino acids) (peptide)
peptide: LVSMDVKHR
modifications: not checked
B11: HPV18 E1 position 284 peptide … (peptide)
peptide: ALLRYKCGK
modifications: not checked
B12: HPV18 E1 position 412 peptide … (peptide)
peptide: CATMCKHYR
modifications: not checked
B13: HPV16 E1 peptide … (position 454, 9 amino acids) (peptide)
peptide: MSFLTALKR
modifications: not checked
B14: HPV16 E1 peptide … (position 315, 9 amino acids) (peptide)
peptide: TAAALYWYK
modifications: not checked
B15: HPV18 E1 position 413 peptide … (peptide)
peptide: ATMCKHYRR
modifications: not checked
B16: HPV16 E1 238 peptide … (peptide)
peptide: IAAFGLTPSI
modifications: not checked
B17: HPV18 E6 peptide … (position 77) (peptide)
peptide: ELRHYSDSV
modifications: not checked
B18: HPV16 E1 … (position 353) (peptide)
peptide: CTFELSQMV
modifications: not checked
B19: HPV18 E6 51 … (peptide)
peptide: DLFVVYRDSI
modifications: not checked
B20: HPV18 E7 peptide … (position 40) (peptide)
peptide: EIDGVNHQHL
modifications: not checked
B21: HPV18 E6 peptide … (position 92) (peptide)
peptide: KLTNTGLYNLL
modifications: not checked
B22: HPV18 E6 peptide … (position 24) (peptide)
peptide: SLQDIEITCV
modifications: not checked
B23: HPV18 E6 88 … (peptide)
peptide: DTLEKLTNT
modifications: not checked
B24: HPV18 E6 peptide … (position 22) (peptide)
peptide: NTSLQDIEIT
modifications: not checked
B25: HPV18 E1 peptide … (position 497, 10 amino acids) (peptide)
peptide: FIHFIQGAVI
modifications: not checked
B26: HPV16 E1 493 peptide … (peptide)
peptide: FLQGSVICFV
modifications: not checked
B27: HPV18 E6 peptide … (position 149) (peptide)
peptide: RLQRRRETQV
modifications: not checked
B28: HPV18 E6 20 … (peptide)
peptide: ELNTSLQDI
modifications: not checked
B29: HPV18 E6 peptide PLNPAEKL (position 111) (peptide)
peptide: PLNPAEKL
modifications: not checked
B30: HPV16 E1 477 peptide … (peptide)
peptide: GAANTGKSL
modifications: not checked
B31: HPV18 E7 peptide DLRAFQQL (position 82) (peptide)
peptide: DLRAFQQL
modifications: not checked
B32: HPV18 E6 peptide TVLELTEV (position 37) (peptide)
peptide: TVLELTEV
modifications: not checked
B33: HPV16 E1 242 peptide … (peptide)
peptide: GLTPSIADSI
modifications: not checked
B34: HPV16 E1 … (position 239) (peptide)
peptide: AAFGLTPSI
modifications: not checked
B35: HPV18 E6 peptide … (position 84) (peptide)
peptide: SVYGDTLEKL
modifications: not checked
B36: HPV18 E1 peptide … (position 500, 10 amino acids) (peptide)
peptide: FIQGAVISFV
modifications: not checked
B37: HPV18 E1 peptide … (position 11, 10 amino acids) (peptide)
peptide: GTGCNGWFYV
modifications: not checked
B38: HPV18 E7 peptide CMCCKCEA (position 63) (peptide)
peptide: CMCCKCEA
modifications: not checked
B39: HPV18 E6 peptide … (position 92) (peptide)
peptide: KLTNTGLYNL
modifications: not checked
B40: HPV18 E7 peptide … (position 82) (peptide)
peptide: DLRAFQQLFL
modifications: not checked
B41: HPV18 E7 peptide … (position 63) (peptide)
peptide: CMCCKCEARI
modifications: not checked
B42: HPV16 E1 12 peptide … (peptide)
peptide: GTGCNGWFYV
modifications: not checked
B43: HPV16 E1 191 … (peptide)
peptide: LTNILNVLK
modifications: not checked
B44: HPV16 E1 620 … (peptide)
peptide: LSLHEDEDK
modifications: not checked
B45: HPV16 E1 544 … (peptide)
peptide: LVSMDVKHR
modifications: not checked
B46: … (HPV16 E7, position 58, 9 amino acids) (peptide)
peptide: CCKCDSTLR
modifications: not checked
B47: HPV18 E6 58 … (peptide)
peptide: DSIPHAACH
modifications: not checked
B48: … (HPV16 E7, position 68, 10 amino acids) (peptide)
peptide: CVQSTHVDIR
modifications: not checked
B49: HPV18 E6 131 … (peptide)
peptide: AGHYRGQCH
modifications: not checked
B50: HPV18 E1 position 341 peptide … (peptide)
peptide: GDTPEWIQR
modifications: not checked
B51: HPV18 E6 117 … (peptide)
peptide: KLRHLNEKR
modifications: not checked
B52: … (HPV16 E6, position 39, 9 amino acids) (peptide)
peptide: YCKQQLLRR
modifications: not checked
B53: HPV18 E6 77 … (peptide)
peptide: ELRHYSDSVY
modifications: not checked
B54: … (HPV16 E7, position 88, 10 amino acids) (peptide)
peptide: GIVCPICSQK
modifications: not checked
B55: … (HPV16 E7, position 14, 10 amino acids) (peptide)
peptide: DLQPETTDLY
modifications: not checked
B56: … (HPV16 E7, position 89, 9 amino acids) (peptide)
peptide: IVCPICSQK
modifications: not checked

Biological target: HLA-A*0301 (human)
Assay: not given
Conditions: not given

Binder | binding affinity ratio (IC50 of the standard peptide / IC50 of the test peptide)
B1 | 0.0005

Biological target: HLA-A*0301 (human)
Assay: competition with 125I-labeled standard peptide for purified HLA, gel filtration
Conditions: not given

Binder | relative binding ratio (IC50 of standard peptide / IC50 of test peptide) | binding affinity ratio (IC50 of standard peptide / IC50 of test peptide)
B2 | 0.084 | 
B3 | 0.0005 | 
B4 | 0.0005 | 
B5 | 0.69 | 
B6 |  | 0.032
B7 | 0.72 | 
B8 | 0.001 | 
B1 | 0.0005 | 
B9 | 0.07 | 
B10 | 0.0005 | 
B11 |  | 0.09
B12 |  | 0.0012
B13 | 0.087 | 
B14 | 0.78 | 

Biological target: HLA-A*1101 (human)
Assay: as above
Conditions: not given

Binder | relative binding ratio (IC50 of standard peptide / IC50 of test peptide) | binding affinity ratio (IC50 of standard peptide / IC50 of test peptide)
B2 | 0.051 | 
B3 | 0.0025 | 
B4 | 0.0002 | 
B5 | 0.028 | 
B6 |  | 0.037
B7 | 7.1 | 
B8 | 0.0086 | 
B1 | 0.011 | 
B9 | 1.8 | 
B10 | 0.0089 | 
B11 |  | 0.14
B12 |  | 0.011
B15 |  | 0.28
B13 | 0.098 | 

Biological target: HLA-A*0201 (human)
Assay: competition with 125I-labelled standard peptide for purified HLA-A*0201, gel filtration
Conditions: not given

Binder | relative binding ratio (IC50 of standard peptide / IC50 of test peptide) | binding affinity ratio (IC50 of the standard peptide / IC50 of the test peptide)
B16 | 0.0002 | 
B17 | 0.0003 | 
B18 | 0.0029 | 
B19 |  | 0.0001
B20 | 0.0001 | 
B21 | 0.0043 | 
B22 | 0.025 | 
B23 |  | 0.0001
B24 | 0.0001 | 
B25 |  | 0.0057
B26 | 0.23 | 
B27 | 0.0001 | 
B28 |  | 0.0001
B29 | 0.0001 | 
B30 | 0.0003 | 
B31 | 0.0001 | 
B32 | 0.001 | 
B33 | 0.0002 | 
B34 | 0.0012 | 
B35 | 0.0028 | 
B36 |  | 0.046
B37 |  | 0.0006
B38 | 0.0005 | 
B39 | 0.0048 | 
B40 | 0.001 | 
B41 | 0.002 | 
B42 | 0.0006 | 

Biological target: HLA-A*0301 (human)
Assay: competition with 125I-labelled standard peptide for purified HLA-A*0301, gel filtration
Conditions: not given

Binder | binding affinity ratio (IC50 of standard peptide / IC50 of test peptide)
B43 | 0.0086
B44 | 0.0005
B45 | 0.0005

Biological target: HLA-A*1101 (human)
Assay: competition with 125I-labelled standard peptide for purified HLA-A*1101, gel filtration
Conditions: not given

Binder | binding affinity ratio (IC50 of standard peptide / IC50 of test peptide) (ratio to standard peptide) | relative binding ratio (IC50 of standard peptide / IC50 of test peptide) | binding affinity ratio (IC50 of standard peptide / IC50 of test peptide)
B43 | 0.42 |  | 
B46 |  | 0.0001 | 
B47 |  |  | 0.0002
B48 |  | 0.0001 | 
B49 |  |  | 0.0002
B50 |  |  | 0.0002
B51 |  |  | 0.0005
B52 |  | 0.0001 | 
B44 | 0.0002 |  | 
B45 | 0.0089 |  | 
B53 |  |  | 0.0002

Same assay, conditions: remark: other sources report otherwise

Binder | relative binding ratio (IC50 of standard peptide / IC50 of test peptide)
B54 | 0.067
B55 | 0.0002
B56 | 0.0065
